# In patent US20220218850A1, “Methods and Compositions for Two-Stage Microbubble Delivery of Active Agents” (Virginia Commonwealth University, priority 2021, published 2022):
# System: DU-145 tumor xenografts
# Experiment: UTMD delivery of Alexa Fluor-His-MDA-7/MB complex to DU-145 xenografts
# Assay type: in vivo, mice
# Conditions: tail vein, ultrasound at left flank tumor (UTMD)
# Description: DU-145 human prostate cancer cells were established as xenografts in the left flank of nude mice. Alexa Fluor labeled His-MDA-7/MBs complex were injected through the tail vein of nude mice, and sonoporated in the xenograft (DU-145) tumor implanted in the left flank with a portable ultrasound (SonoSite Micro-Maxx US platform) equipped with an L25 linear array transducer set at 0.7 Mechanical Index, 1.8 MPa for 10 min (UTMD approach). The fluorescent image was captured using Xenogen IVIS spectrum. […] Lighter color indicates higher fluorescent intensity.
# In addition to delivering therapeutic viruses systemically, we also tested the possibility of using MBs and a UTMD approach to deliver therapeutic proteins in vivo. His tagged MDA-7/IL-24 (His-MDA-7) was purified by using Ni-NTA column chromatography. 1 mg/ml of His-MDA-7 solution was mixed with Alexa Fluor 488 containing 0.1 M Sodium bicarbonate, followed by removal of unincorporated dye by centrifugation using centricon (3 kD cut off MW). Confirmation of labeling of His-MDA-7 (Alexa Fluor-His-MDA-7) was obtained spectroflurometrically based on emission spectra changes. The Alexa Fluor-His-MDA-7 was incubated overnight with MBs and localization of the labeled protein complex in the MBs was monitored by green fluorescence and found to be associated with the lipid shell of the MB (FIG. 3A). […]
molecule,measurement,setting,value
"Alexa Fluor-His-MDA-7: His tagged MDA-7/IL-24 protein labeled with Alexa Fluor 488, complexed with microbubbles (protein, UniProt Q13007 52-206, looked up, His tag, Alexa Fluor 488, microbubble complex, His tagged MDA-7/IL-24 protein labeled with Alexa Fluor 488, complexed with microbubbles) Interleukin-24: QEFHFGPCQVKGVVPQKLWEAFWAVKDTMQAQDNITSARLLQQEVLQNVSDAESCYLVHTLLEFYLKTVFKNYHNRTVEVRTLKSFSTLANNFVLIVSQLQPSQENEMFSIRDSAHRRFLLFRRAFKQLDVEAALTKALGEVDILLTWMQKFYKL",localisation of labeled protein (fluorescent image),,mostly localized in the left flank where ultrasound was applied
same,localisation of labeled protein (fluorescent image),listed as Alexa Fluor-MDA-7,located predominantly in the tumor in the left flank of mice
